This is an account of results in patent US20240287202A1 (XYPHOS BIOSCIENCES, published 2024).

One may read the EC50 (read off the curve) as the concentration needed to bring the measured effect to its halfway point. Low readings indicate a more potent agent, high ones a less potent agent. As usually defined, the Kd is the free concentration of one partner at which half of the binding sites on the other are occupied at equilibrium, for simple one-to-one binding. Low readings indicate higher affinity, high ones lower affinity.

For assay [1], the target named is T1, mouse NKG2D (mouse, UniProt O54709 94-232, limits assumed).
T1 construct: also called mouse wild-type NKG2D
T1 sequence (looked up): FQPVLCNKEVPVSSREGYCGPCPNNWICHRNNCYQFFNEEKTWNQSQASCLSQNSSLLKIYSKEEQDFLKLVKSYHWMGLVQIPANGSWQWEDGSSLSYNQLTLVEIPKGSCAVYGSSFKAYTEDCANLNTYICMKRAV
Kind of assay: ELISA on mouse NKG2D, absorbance against nM MicAbody. In general terms: In an ELISA, binding on a coated surface is turned into a signal by an enzyme label.

In assay [2] the target is Fc-iNKG2D.YA (NKG2D ectodomain Y152A fused to the C-terminus of human IgG1 Fc) (human) (UniProt P26718). As to the kind of experiment: ELISA; wells coated with Fc-iNKG2D.YA, R3Mab heavy-chain MicAbody titrated.
In assay [3] the target is T2, Fc-iNKG2D.YA (NKG2D ectodomain Y152A fused to the C-terminus of human IgG1 Fc) (human, UniProt P26718 78-216).
T2 construct: range 78-216; it is not tied by words to this Fc fusion; not shown: human IgG1 Fc
T2 sequence: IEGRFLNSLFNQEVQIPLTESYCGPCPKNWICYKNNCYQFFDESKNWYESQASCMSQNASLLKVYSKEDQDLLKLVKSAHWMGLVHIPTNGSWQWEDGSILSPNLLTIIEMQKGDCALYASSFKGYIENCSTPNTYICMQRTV
Kind of assay: Octet BLI; Fc-iNKG2D.YA captured on AHC tips, two-fold dilution series of MicAbody from 50 nM. An excerpt: The y-axes corresponding to binding responses were set to the same scale for all sensograms.
On the technique in general: Biolayer interferometry detects binding as a change in optical thickness at a sensor tip.

The target of assay [4] is T2, Fc-iNKG2D.YA (NKG2D ectodomain Y152A …). As to the kind of experiment: ELISA; wells coated with Fc-iNKG2D.YA, Rituximab.LC-U2S3 titrated, HRP anti-human kappa.
For assay [5], the target named is Fc-wtNKG2D (wild-type NKG2D ectodomain fused to the C-terminus of human IgG1 Fc) (human) (UniProt P26718). As to the kind of experiment: ELISA; wells coated with Fc-wtNKG2D, R3Mab heavy-chain MicAbody titrated.
The target of assay [6] is T3, A1-A2 domain of human MICA*001 with C-terminal 6x-His tag (monomer) (human, UniProt Q29983 24-205).
T3 construct: range 24-205; also called MIC-His ligand
T3 sequence: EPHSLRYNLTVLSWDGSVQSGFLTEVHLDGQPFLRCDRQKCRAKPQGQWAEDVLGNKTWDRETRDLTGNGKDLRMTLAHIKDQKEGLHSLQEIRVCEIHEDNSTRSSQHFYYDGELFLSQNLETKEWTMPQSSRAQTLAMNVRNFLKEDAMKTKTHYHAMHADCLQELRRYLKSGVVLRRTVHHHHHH
Kind of assay: Octet BLI; Fc-wtNKG2D captured on anti-human IgG Fc (AHC) tips, dilution series of His-tagged monomeric ligand. An excerpt: Note that all axes are to the same scale (Binding-0 nm, 0.4 nm. 0.8 nm, 1.2 nm (y-axis); Time-0 s, 50 s, 100 s, 150 s, 200 s, 250 s, 300 s, 350 s (x-axis). Data is representative of a single experiment.

The target in assay [7] is T4, A1-A2 domain of human MICB with C-terminal 6x-His tag (monomer) (human, UniProt Q29980 24-205).
T4 construct: range 24-205; also called MIC-His ligand
T4 sequence: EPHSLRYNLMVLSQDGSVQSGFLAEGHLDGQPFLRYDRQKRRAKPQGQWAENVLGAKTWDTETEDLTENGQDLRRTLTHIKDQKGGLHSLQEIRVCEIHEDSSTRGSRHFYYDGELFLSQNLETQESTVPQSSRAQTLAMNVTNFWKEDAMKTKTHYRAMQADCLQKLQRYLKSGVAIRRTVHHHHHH
Kind of assay: Octet BLI, response against concentration (legend: monomeric ligands; axis on the sheet: nM Fc-NKG2D.wt).

Assay [8] addresses T5, A1-A2 domain of human ULBP3 with C-terminal 6x-His tag (monomer) (human, UniProt Q9BZM4 30-212).
T5 construct: range 30-212; also called MIC-His ligand
T5 sequence: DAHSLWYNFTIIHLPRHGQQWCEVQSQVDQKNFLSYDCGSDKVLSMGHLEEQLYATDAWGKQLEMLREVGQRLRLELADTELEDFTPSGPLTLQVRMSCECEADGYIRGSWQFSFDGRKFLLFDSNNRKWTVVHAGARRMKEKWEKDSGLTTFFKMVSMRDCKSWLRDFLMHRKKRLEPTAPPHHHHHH
The description is as above.

For assay [9], the target named is T6, His-tagged monomeric ULBP2 R81W (human, UniProt Q9BZM5 29-212).
T6 construct: range 29-212; Construct limits are stated only for wild-type ULBP2-His; position 81 counts on the mature protein, not on the UniProt entry
T6 sequence: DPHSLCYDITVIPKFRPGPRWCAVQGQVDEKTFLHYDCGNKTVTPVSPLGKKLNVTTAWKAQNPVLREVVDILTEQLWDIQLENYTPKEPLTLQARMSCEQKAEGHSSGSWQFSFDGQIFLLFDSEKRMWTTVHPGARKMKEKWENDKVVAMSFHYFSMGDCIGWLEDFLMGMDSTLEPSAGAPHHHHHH
Kind of assay: Octet BLI; Fc-wtNKG2D captured on AHC tips, dilution series of His-tagged monomeric ligand. An excerpt:
(§1) YA. […] YA were captured with anti-human IgG Fc capture (AHC) biosensor tips then associated with a dilution series of ligand. Data are from single experiments.

Assay [10] addresses T7, A1-A2 domain of human ULBP2 with C-terminal 6x-His tag (monomer) (human, UniProt Q9BZM5 29-212).
T7 construct: range 29-212; also called wild-type ULBP2; MIC-His ligand
T7 sequence: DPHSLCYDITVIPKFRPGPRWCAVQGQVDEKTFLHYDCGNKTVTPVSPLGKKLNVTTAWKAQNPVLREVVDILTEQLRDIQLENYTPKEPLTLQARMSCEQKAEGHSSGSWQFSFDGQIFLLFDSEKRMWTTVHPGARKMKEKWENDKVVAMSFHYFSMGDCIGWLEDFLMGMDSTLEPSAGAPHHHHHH
The description is as above.
Description: as §1

Assay [11] has as its target T8, ULBP1-Fc (R&D Systems) (human, UniProt Q9BZM6 26-216).
T8 construct: Bought; also called Ligand-Fc fusion; not shown: Fc of the bought fusion; not described
T8 sequence (looked up): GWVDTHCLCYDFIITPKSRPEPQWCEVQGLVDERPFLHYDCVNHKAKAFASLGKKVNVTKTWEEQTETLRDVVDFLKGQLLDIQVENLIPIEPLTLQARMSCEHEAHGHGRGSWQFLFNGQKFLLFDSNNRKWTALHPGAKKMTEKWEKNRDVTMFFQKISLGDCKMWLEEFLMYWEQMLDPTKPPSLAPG
Kind of assay: ELISA; ligand-Fc coated, biotinylated Fc-wtNKG2D, streptavidin-HRP (legend: the Fc-NKG2D is titrated; axis on the sheet: nM ligand-Fc).

The target in assay [12] is T9, MICB-Fc (R&D Systems) (human, UniProt Q29980 23-298, limits assumed).
T9 construct: Bought; also called Ligand-Fc fusion; not shown: Fc of the bought fusion; not described
T9 sequence (looked up): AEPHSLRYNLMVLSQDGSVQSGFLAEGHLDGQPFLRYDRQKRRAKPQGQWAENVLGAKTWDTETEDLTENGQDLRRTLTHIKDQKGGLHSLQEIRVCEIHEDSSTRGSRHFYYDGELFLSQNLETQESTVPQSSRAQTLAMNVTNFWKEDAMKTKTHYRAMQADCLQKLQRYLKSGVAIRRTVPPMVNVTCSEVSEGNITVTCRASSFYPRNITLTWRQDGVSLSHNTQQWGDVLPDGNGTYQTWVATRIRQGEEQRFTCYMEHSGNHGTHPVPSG
The description is as above.

For assay [13], the target named is T10, MICA-Fc (R&D Systems) (human, UniProt Q29983 24-308, limits assumed).
T10 construct: Bought; also called Ligand-Fc fusion; not shown: Fc of the bought fusion; not described
T10 sequence (looked up): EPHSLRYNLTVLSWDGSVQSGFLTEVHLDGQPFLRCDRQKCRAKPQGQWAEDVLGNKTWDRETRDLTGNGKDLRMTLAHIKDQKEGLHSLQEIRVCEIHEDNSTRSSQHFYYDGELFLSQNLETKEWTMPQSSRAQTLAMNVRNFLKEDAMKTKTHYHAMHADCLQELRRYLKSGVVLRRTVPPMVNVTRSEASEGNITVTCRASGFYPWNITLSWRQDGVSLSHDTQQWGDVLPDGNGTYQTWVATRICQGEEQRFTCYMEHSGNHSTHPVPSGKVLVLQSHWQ
The description is as above.

Assay [14] deals with T11, ULBP3-Fc (R&D Systems) (human, UniProt Q9BZM4 30-217).
T11 construct: Bought; also called Ligand-Fc fusion; not shown: Fc of the bought fusion; not described
T11 sequence (looked up): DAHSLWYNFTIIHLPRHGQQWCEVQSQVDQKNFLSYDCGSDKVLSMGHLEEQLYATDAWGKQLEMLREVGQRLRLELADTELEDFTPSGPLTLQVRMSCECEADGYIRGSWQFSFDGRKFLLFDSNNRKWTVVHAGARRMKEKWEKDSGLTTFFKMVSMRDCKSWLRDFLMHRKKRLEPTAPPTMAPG
Described as above.

In assay [1], “Trastuzumab.LC-Rae1b (bispecific antibody)” displayed an EC50 (read off the curve) of 1 nM.

B1: R3Mab (anti-FGFR3) heavy-chain C-terminal fusion of U2S3 (MicAbody) (bispecific antibody, part only; not given: R3Mab variable regions and Fc, IgG1, not shown: a dimerising Fc or GST)
heavy, part: GGGSEPHSLSYDITVIPKFRPGPRWCAVQGQVDEKTFLHYDCGQKTVTPVSPLGKKLQVTTAWKAQNPVLREVVDILTEQLWDIQLENYTPKEPLTLQARMSCEQKAEGHSSGSWQFSFDGQIFLLFDSEKRMWTTVHPGARKMKEKWENDKVVATKLYLWSMGDCIGWLEDFLMGMDSTLEPS
Take B1: the EC50 (read off the curve) in [2] was determined as 0.02 nM.

B2: Rituximab.LC-U2S3 MicAbody (U2S3 A1-A2 domain fused to the C-terminus of the rituximab kappa light chain) (bispecific antibody)
heavy: QVQLQQPGAELVKPGASVKMSCKASGYTFTSYNMHWVKQTPGRGLEWIGAIYPGNGDTSYNQKFKGKATLTADKSSSTAYMQLSSLTSEDSAVYYCARSTYYGGDWYFNVWGAGTTVTVSAA
light (part 1 of 2): QIVLSQSPAILSASPGEKVTMTCRASSSVSYIHWFQQKPGSSPKPWIYATSNLASGVPVRFSGSGSGTSYSLTISRVEAEDAATYYCQQWTSNPPTFGGGTKLEIK
light (part 2 of 2): APTSSSGGGGSEPHSLSYDITVIPKFRPGPRWCAVQGQVDEKTFLHYDCGQKTVTPVSPLGKKLQVTTAWKAQNPVLREVVDILTEQLWDIQLENYTPKEPLTLQARMSCEQKAEGHSSGSWQFSFDGQIFLLFDSEKRMWTTVHPGARKMKEKWENDKVVATKLYLWSMGDCIGWLEDFLMGMDSTLEPS
notes: also called Rit-S3; Ritux-S3; not shown: human IgG1 heavy-chain constant region, ADCC-deficient; human kappa light-chain constant region
On to B2, for which the equilibrium dissociation constant (Kd) in assay [3] was determined as 0.01 nM. For the same molecule, the “EC50 (read off the curve)” value in assay [4] is approximately 0.03 nM.

B3: R3Mab (anti-FGFR3) heavy-chain C-terminal fusion of wild-type ULBP2 (MicAbody) (bispecific antibody, part only; not given: R3Mab variable regions and Fc, IgG1, not shown: a dimerising Fc or GST)
heavy, part: GGGSDPHSLCYDITVIPKFRPGPRWCAVQGQVDEKTFLHYDCGNKTVTPVSPLGKKLNVTTAWKAQNPVLREVVDILTEQLRDIQLENYTPKEPLTLQARMSCEQKAEGHSSGSWQFSFDGQIFLLFDSEKRMWTTVHPGARKMKEKWENDKVVAMSFHYFSMGDCIGWLEDFLMGMDSTLEPSAG
Turning to B3, in assay [5], the EC50 (read off the curve) came out at 0.4 nM.

B4: R3Mab (anti-FGFR3) heavy-chain C-terminal fusion of ULBP2 R81W (MicAbody) (bispecific antibody, part only; not given: R3Mab variable regions and Fc, IgG1, not shown: a dimerising Fc or GST)
heavy, part: GGGSDPHSLCYDITVIPKFRPGPRWCAVQGQVDEKTFLHYDCGNKTVTPVSPLGKKLNVTTAWKAQNPVLREVVDILTEQLWDIQLENYTPKEPLTLQARMSCEQKAEGHSSGSWQFSFDGQIFLLFDSEKRMWTTVHPGARKMKEKWENDKVVAMSFHYFSMGDCIGWLEDFLMGMDSTLEPSAG
The molecule B4 showed an EC50 (read off the curve) in assay [5] of 0.02 nM.

B5: Fc-wtNKG2D (wild-type NKG2D ectodomain fused to the C-terminus of human IgG1 Fc) (Fc fusion)
chain: IEGRFLNSLFNQEVQIPLTESYCGPCPKNWICYKNNCYQFFDESKNWYESQASCMSQNASLLKVYSKEDQDLLKLVKSYHWMGLVHIPTNGSWQWEDGSILSPNLLTIIEMQKGDCALYASSFKGYIENCSTPNTYICMQRTV
notes: range 78-216; Dimeric secreted protein from Expi293 cells; also called Fc-NKG2D; not shown: human IgG1 Fc
Consider B5, for which the binding result in assay [6], in [7], in assay [8], in [11], in assay [12] and in assay [13] was “binds” throughout. Besides, the binding result in [14] is reported as “binds”. Moreover, the equilibrium dissociation constant (Kd) in assay [9] was 8 nM; in [10] it was 350 nM.
